Experimental data taken from US20240218052A1.

B1: SKD chimeric bovine-human IgG1 (ultralong CDR3) (antibody)
VH: QVQLRESGPSLVKPSQTLSLTCTASGFSLSDKAVGWVRQAPGKALEWLGSIDTGGNTGYNPGLKSRLSITKDNSKSQVSLSVSSVTTEDSATYYCTTVHQRTSEKRSCPGGSSRRYPSGASCDVSGGACACYVSNCRGVLCPTLNEIVAYTYEWHVDAWGQGLLVTVSS
VL: QAVLNQPSSVSGSLGQRVSITCSGSSSNVGNGYVSWYQLIPGSAPRTLIYGDTSRASGVPDRFSGSRSGNTATLTISSLQAEDEADYFCASAEDSSSNAVFGSGTTLTVL
B2: SKM chimeric bovine-human IgG1 (ultralong CDR3) (antibody)
VH: QVQLRESGPSLVKPSQTLSLTCTASGFSLSDKAVGWVRQAPGKALEWLGSIDTGGNTGYNPGLKSRLSITKDNSKSQVSLSVSSVTTEDSATYYCTTVHQETLRSCPDGYIDNSGCTADWGCAALDCWRRRFGYHSTDPSHYTGATYIYTYSLHIDAWGQGLLVTVSS
VL: B1 VL

Target: SARS CoV-2 parental (Wuhan-Hu-1) receptor binding domain (RBD) protein, amino acids 319 to 541 of th (SARS-CoV-2, Wuhan-Hu-1 isolate), P0DTC2
Assay: ELISA, antigen coated, chimeric IgG1 titrated, anti-human Fc-HRP
Conditions: remark: other sources report otherwise

Binder | EC50 [nM]
B1 | 0.19
B2 | 0.24
